This note sets out measurements from patent US20110275102.

Data set [1] addresses GSK3-β partially purified from rabbit skeletal muscle, A0A5F9.
Data set [2] deals with GSK3-α partially purified from rabbit skeletal muscle.
Another data set has as its target T1, Crosstide GRPRTSSFAEG
T1 chain: GRPRTSSFAEG

Chain of GSK3-β partially purified from rabbit skeletal muscle, A0A5F9 (A0A5F9 entry or part of it): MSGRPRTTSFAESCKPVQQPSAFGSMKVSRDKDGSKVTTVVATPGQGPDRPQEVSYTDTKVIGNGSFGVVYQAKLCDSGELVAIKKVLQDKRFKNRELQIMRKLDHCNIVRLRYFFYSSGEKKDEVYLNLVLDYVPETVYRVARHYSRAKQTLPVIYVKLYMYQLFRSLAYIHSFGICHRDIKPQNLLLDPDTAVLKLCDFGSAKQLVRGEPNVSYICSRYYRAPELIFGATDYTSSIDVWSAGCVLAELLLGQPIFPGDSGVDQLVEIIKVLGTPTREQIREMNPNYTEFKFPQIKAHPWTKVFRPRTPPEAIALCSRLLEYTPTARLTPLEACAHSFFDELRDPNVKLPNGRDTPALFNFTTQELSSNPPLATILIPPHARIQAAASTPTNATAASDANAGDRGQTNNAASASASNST

B1: RAC-PK immunoprecipitated or chromatographed from insulin-stimulated L6 myotubes (protein)
chain: MNDVAIVKEGWLHKRGEYIKTWRPRYFLLKNDGTFIGYKERPQDVEQRESPLNNFSVAQCQLMKTERPRPNTFIIRCLQWTTVIERTFHVETPEEREEWTTAIQTVADGLKRQEEETMDFRSGSPSDNSGAEEMEVALAKPKHRVTMNEFEYLKLLGKGTFGKVILVKEKATGRYYAMKILKKEVIVAKDEVAHTLTENRVLQNSRHPFLTALKYSFQTHDRLCFVMEYANGGELFFHLSRERVFSEDRARFYGAEIVSALDYLHSEKNVVYRDLKLENLMLDKDGHIKITDFGLCKEGIKDGATMKTFCGTPEYLAPEVLEDNDYGRAVDWWGLGVVMYEMMCGRLPFYNQDHEKLFELILMEEIRFPRTLGPEAKSLLSGLLKKDPTQRLGGGSEDAKEIMQHRFFANIVWQDVYEKKLSPPFKPQVTSETDTRYFDEEFTAQMITITPPDQDDSMECVDSERRPHFPQFSYSASGTA
B1: the “GSK3 activity after incubation with MgATP and RAC-PK” value in data set [1] was “RAC-PK from insulin-stimulated L6 myotubes (but not from unstimulated or wortmannin-treated cells) inactivated GSK3-α and GSK3-β in vitro”; in data set [2], “RAC-PK from insulin-stimulated L6 myotubes (but not from unstimulated or wortmannin-treated cells) inactivated GSK3-α and GSK3-β in vitro”. Besides, the “site of in vitro phosphorylation (tryptic peptide, solid-phase sequencing)” value in data set [1] is listed as “the third residue of these, corresponding to Ser9 (GSK3-β) or Ser21 (GSK3-α), was the site of phosphorylation in each phosphopeptide”. For the same protein, the “site of phosphorylation in Crosstide” value with Crosstide GRPRTSSFAEG was “Akt/RAC phosphorylated the Ser in the Crosstide equivalent to Ser21 in GSK3-α and Ser9 in GSK3-β (data not shown)”.
